Laboratory results reported in article doi:10.1101/2022.09.20.508729, “Loss of the first β-strand of human prion protein generates an aggregation-competent partially “open” form” (bioRxiv, 2022).

Biological target: the molecule itself
Experiment: thioflavin T fluorescence of fibril formation

B1: PrP^23 (residues 23-231 of human PrP) (natural protein)
chain: not shown
notes: also called full-length WT PrP
**Q.** Does B1 bind?
**A.** binds
